Patent US20220372155A1 (LYVGEN BIOPHARMA, published 2022)

What was measured:
[1] = target: T1, human CD40 expressed on CHO cells (human, UniProt P25942 21-277); experiment: FACS, CHO cells
T1 construct: whole, on cells; also used for the reporter cells over-expressing human CD40; also called cellular CD40; CHO-CD40 cells

[2] = target: T2, human PD-L1 expressed on CHO cells (human, UniProt Q9NZQ7 19-290); experiment: FACS, CHO cells
T2 construct: whole, on cells; also used for human PD-L1 on Raji cells in the reporter assay; also called cell surface PD-L1; Raji-PD-L1 cells

[3] = target: T3, Ly090 (human CD40 ECD protein with His tag) (human, UniProt P25942 21-193); experiment: bridging ELISA, coated CD40 ECD-His, soluble PD-L1 ECD-mFc
T3 construct: extracellular domain; also called human CD40 ECD protein (His tag); recombinant human CD40; not shown: His tag
Protocol: (§1) Exemplary anti-PD-L1/CD40 bi-specific antibodies were analyzed by ELISA for their simultaneous binding to recombinant human PD-L1 and human CD40. Briefly, Ly090 (human CD40 ECD protein with His tag) was diluted and coated onto an ELISA plate with a volume of 100 μL/well by incubation at 4° C. overnight. The next day, the plate was blocked by PBST-BSA buffer, then serially diluted samples of anti-PD-L1/CD40 bi-specific antibodies were pipetted into appropriate wells at 50 μL/well, and the plate was incubated for 1 h followed by Washing. Human PD-L1 ECD protein (mouse IgG2a Fc tag) was added into the plate at 50 μL/well. After 1-hour incubation at room temperature, HRP-conjugated anti-Mouse IgG, Fc G2a antibody was added into the plate at 100 μL/well. The plate was incubated for 1 hour at room temperature followed by washing. TMB substrate solution was added at 100 μL/well and the color development was stopped by adding 100 uL/well Stop Solution (2N H₂SO₄). Absorbance at 450 nm and 620 nm was read by Tecan F200 Pro plate reader. GraphPad 7.0, “[Agonist] vs. response—Variable slope (four parameters)” was used to plot the binding data and calculate binding EC50 values.

[4] = target: T4, Human PD-L1 ECD protein (mouse IgG2a Fc tag) (human, UniProt Q9NZQ7 19-238); experiment: as above
T4 construct: extracellular domain; also called recombinant human PD-L1; not shown: mouse IgG2a Fc tag
Protocol: as §1

Measured: binding result

T4 sequence (Q9NZQ7 19-238): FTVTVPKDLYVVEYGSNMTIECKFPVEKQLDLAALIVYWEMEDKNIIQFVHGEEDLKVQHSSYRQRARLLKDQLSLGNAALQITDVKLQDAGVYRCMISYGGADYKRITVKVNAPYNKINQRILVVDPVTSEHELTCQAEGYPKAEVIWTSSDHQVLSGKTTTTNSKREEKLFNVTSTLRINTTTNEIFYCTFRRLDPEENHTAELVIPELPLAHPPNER
T2 sequence (Q9NZQ7 19-290): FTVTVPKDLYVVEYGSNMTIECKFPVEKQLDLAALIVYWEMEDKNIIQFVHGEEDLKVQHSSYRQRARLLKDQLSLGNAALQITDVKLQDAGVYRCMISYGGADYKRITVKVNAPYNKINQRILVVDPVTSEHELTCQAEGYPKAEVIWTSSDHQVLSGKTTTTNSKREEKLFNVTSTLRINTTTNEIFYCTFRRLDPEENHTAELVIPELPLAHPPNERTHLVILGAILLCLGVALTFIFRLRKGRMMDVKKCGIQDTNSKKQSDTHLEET
T1 sequence (P25942 21-277): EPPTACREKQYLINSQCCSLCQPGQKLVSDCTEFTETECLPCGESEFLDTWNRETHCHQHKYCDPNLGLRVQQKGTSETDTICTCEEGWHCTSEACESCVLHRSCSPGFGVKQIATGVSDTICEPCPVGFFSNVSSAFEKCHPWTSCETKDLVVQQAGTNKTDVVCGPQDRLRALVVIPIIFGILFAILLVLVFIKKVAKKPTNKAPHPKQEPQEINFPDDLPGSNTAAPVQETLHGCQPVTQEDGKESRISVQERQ
T3 sequence (P25942 21-193): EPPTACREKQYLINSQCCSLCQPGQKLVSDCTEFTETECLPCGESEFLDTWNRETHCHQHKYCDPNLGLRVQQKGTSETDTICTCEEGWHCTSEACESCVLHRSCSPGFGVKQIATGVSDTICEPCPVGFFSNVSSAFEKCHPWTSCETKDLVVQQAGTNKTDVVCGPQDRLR

B1: Ly349 (bispecific antibody, human IgG1, kappa)
heavy: QVQLVQSGAEVKKPGASVKVSCKASGYTFTDFWMSWVRQAPGQGLEWMGQIYPNTGTTHSNEKFKGRVTMTRDTSTSTVYMELSSLRSEDTAVYYCARSYHISTTPNWFAYWGQGTLVTVSSASTKGPSVFPLAPSSKSTSGGTAALGCLVKDYFPEPVTVSWNSGALTSGVHTFPAVLQSSGLYSLSSVVTVPSSSLGTQTYICNVNHKPSNTKVDKKVEPKSCDKTHTCPPCPAPELLGPSVFLFPPKPKDTLMISRTPEVTCVVVDVSHEDPEVKFNWYVDGVEVHNAKTKPREEQYNSTYRVVSVLTVLHQDWLNGKEYKCKVSNKALPAPIEKTISKAKGQPREPQVYTLPPSREEMTKNQVSLTCLVKGFYPSDIAVEWESNGQPENNYKTTPPVLDSDGSFFLYSKLTVDKSRWQQGNVFSCSVMHEALHNHYTQKSLSLSPG
light: DIQMTQSPSSLSASVGDRVTITCKASQNVYKKLEWYQQKPGKVPKVLIYHTNILQTGVPSRFSGSGSGTDYTLTISSLQPEDVATYYCYQWNSGPTFGGGTKVEIKRTVAAPSVFIFPPSDEQLKSGTASVVCLLNNFYPREAKVQWKVDNALQSGNSQESVTEQDSKDSTYSLSSTLTLSKADYEKHKVYACEVTHQGLSSPVTKSFNRGECGGGGSGGGGSGGGGSGGGGSDIQMTQSPSSLSASVGDRVTITCKASQNIYIYLNWYQQKPGKAPKLLIYNTNNLQTGVPSRFSGSGSGTDFTLTISSLQPEDFATYYCLQHSSRRTFGGGTKVEIKGGGGSGGGGSGGGGSGGGGSQVQLVESGGGLVQPGGSLKLSCATSGFNFNDYFMNWVRQASGKGLEWVGQIRNKNYNYATYYTESLEGRVTISRDDSKNTAYLQMNSLKTEDTAVYYCTSYYYDGFADYFDYWGQGTTVTVSS
notes: Ly076 HC (IgG1 mutated Fc) + Ly076 LC-TM740 scFv VL-VH
binds: all assays above

B2: Ly350 (bispecific antibody, human IgG1, kappa)
heavy: QVQLVQSGAEVKKPGASVKVSCKASGYTFTDFWMSWVRQAPGQGLEWMGQIYPNTGTTHSNEKFKGRVTMTRDTSTSTVYMELSSLRSEDTAVYYCARSYHISTTPNWFAYWGQGTLVTVSSASTKGPSVFPLAPSSKSTSGGTAALGCLVKDYFPEPVTVSWNSGALTSGVHTFPAVLQSSGLYSLSSVVTVPSSSLGTQTYICNVNHKPSNTKVDKKVEPKSCDKTHTCPPCPAPELLGPSVFLFPPKPKDTLMISRTPEVTCVVVDVSHEDPEVKFNWYVDGVEVHNAKTKPREEQYNSTYRVVSVLTVLHQDWLNGKEYKCKVSNKALPAPIEKTISKAKGQPREPQVYTLPPSREEMTKNQVSLTCLVKGFYPSDIAVEWESNGQPENNYKTTPPVLDSDGSFFLYSKLTVDKSRWQQGNVFSCSVMHEALHNHYTQKSLSLSPG
light: DIQMTQSPSSLSASVGDRVTITCKASQNVYKKLEWYQQKPGKVPKVLIYHTNILQTGVPSRFSGSGSGTDYTLTISSLQPEDVATYYCYQWNSGPTFGGGTKVEIKRTVAAPSVFIFPPSDEQLKSGTASVVCLLNNFYPREAKVQWKVDNALQSGNSQESVTEQDSKDSTYSLSSTLTLSKADYEKHKVYACEVTHQGLSSPVTKSFNRGECGGGGSGGGGSGGGGSGGGGSDIQMTQSPSSLSASVGDRVTITCLASEDISNDLAWYQQKPGKAPKLLIYFVDRLLDGVPSRFSGSGSGTDFTLTISSLQPEDFATYYCQQSYKYPPTFGQGTKLEIKGGGGSGGGGSGGGGSGGGGSEVQLVESGGGLVQPGGSLRLSCAASGFTFTNYGLHWVRQAPGKGLEWVSSISPSGGVTYYRDSVKGRFTISRDNSKNTLYLQMNSLRAEDTAVYYCAKPFLGWGGANWIAHWGQGTLVTVSS
notes: Ly076 HC (IgG1 mutated Fc) + Ly076 LC-TM559 scFv VL-VH
binds: all assays above

B3: Ly339 (bispecific antibody, human IgG1, kappa)
heavy: QVQLVQSGAEVKKPGASVKVSCKASGYTFTDFWMSWVRQAPGQGLEWMGQIYPNTGTTHSNEKFKGRVTMTRDTSTSTVYMELSSLRSEDTAVYYCARSYHISTTPNWFAYWGQGTLVTVSSASTKGPSVFPLAPSSKSTSGGTAALGCLVKDYFPEPVTVSWNSGALTSGVHTFPAVLQSSGLYSLSSVVTVPSSSLGTQTYICNVNHKPSNTKVDKKVEPKSCDKTHTCPPCPAPELLGPSVFLFPPKPKDTLMISRTPEVTCVVVDVSHEDPEVKFNWYVDGVEVHNAKTKPREEQYNSTYRVVSVLTVLHQDWLNGKEYKCKVSNKALPAPIEKTISKAKGQPREPQVYTLPPSREEMTKNQVSLTCLVKGFYPSDIAVEWESNGQPENNYKTTPPVLDSDGSFFLYSKLTVDKSRWQQGNVFSCSVMHEALHNHYTQKSLSLSPG
light: DIQMTQSPSSLSASVGDRVTITCKASQNVYKKLEWYQQKPGKVPKVLIYHTNILQTGVPSRFSGSGSGTDYTLTISSLQPEDVATYYCYQWNSGPTFGGGTKVEIKRTVAAPSVFIFPPSDEQLKSGTASVVCLLNNFYPREAKVQWKVDNALQSGNSQESVTEQDSKDSTYSLSSTLTLSKADYEKHKVYACEVTHQGLSSPVTKSFNRGECGGGGSGGGGSGGGGSGGGGSQVQLVESGGGLVQPGGSLKLSCATSGFNFNDYFMNWVRQASGKGLEWVGQIRNKNYNYATYYTESLEGRVTISRDDSKNTAYLQMNSLKTEDTAVYYCTSYYYDGFADYFDYWGQGTTVTVSSGGGGSGGGGSGGGGSGGGGSDIQMTQSPSSLSASVGDRVTITCKASQNIYIYLNWYQQKPGKAPKLLIYNTNNLQTGVPSRFSGSGSGTDFTLTISSLQPEDFATYYCLQHSSRRTFGGGTKVEIK
notes: Ly076 HC (IgG1 mutated Fc) + Ly076 LC-TM740 scFv VH-VL
binds: all assays above

B4: Ly303 (bispecific antibody, human IgG1, kappa)
heavy: QVQLVQSGAEVKKPGASVKVSCKASGYTFTDFWMSWVRQAPGQGLEWMGQIYPNTGTTHSNEKFKGRVTMTRDTSTSTVYMELSSLRSEDTAVYYCARSYHISTTPNWFAYWGQGTLVTVSSASTKGPSVFPLAPSSKSTSGGTAALGCLVKDYFPEPVTVSWNSGALTSGVHTFPAVLQSSGLYSLSSVVTVPSSSLGTQTYICNVNHKPSNTKVDKKVEPKSCDKTHTCPPCPAPELLGPSVFLFPPKPKDTLMISRTPEVTCVVVDVSHEDPEVKFNWYVDGVEVHNAKTKPREEQYNSTYRVVSVLTVLHQDWLNGKEYKCKVSNKALPAPIEKTISKAKGQPREPQVYTLPPSREEMTKNQVSLTCLVKGFYPSDIAVEWESNGQPENNYKTTPPVLDSDGSFFLYSKLTVDKSRWQQGNVFSCSVMHEALHNHYTQKSLSLSPGGGGGSGGGGSGGGGSGGGGSDIQMTQSPSSLSASVGDRVTITCLASEDISNDLAWYQQKPGKAPKLLIYFVDRLLDGVPSRFSGSGSGTDFTLTISSLQPEDFATYYCQQSYKYPPTFGQGTKLEIKGGGGSGGGGSGGGGSGGGGSEVQLVESGGGLVQPGGSLRLSCAASGFTFTNYGLHWVRQAPGKGLEWVSSISPSGGVTYYRDSVKGRFTISRDNSKNTLYLQMNSLRAEDTAVYYCAKPFLGWGGANWIAHWGQGTLVTVSS
light: DIQMTQSPSSLSASVGDRVTITCKASQNVYKKLEWYQQKPGKVPKVLIYHTNILQTGVPSRFSGSGSGTDYTLTISSLQPEDVATYYCYQWNSGPTFGGGTKVEIKRTVAAPSVFIFPPSDEQLKSGTASVVCLLNNFYPREAKVQWKVDNALQSGNSQESVTEQDSKDSTYSLSSTLTLSKADYEKHKVYACEVTHQGLSSPVTKSFNRGEC
notes: Ly076 HC (IgG1 mutated Fc)-TM559 scFv VL-VH + Ly076 LC
binds: all assays above

B5: Ly340 (bispecific antibody, human IgG1, kappa)
heavy: QVQLVQSGAEVKKPGASVKVSCKASGYTFTDFWMSWVRQAPGQGLEWMGQIYPNTGTTHSNEKFKGRVTMTRDTSTSTVYMELSSLRSEDTAVYYCARSYHISTTPNWFAYWGQGTLVTVSSASTKGPSVFPLAPSSKSTSGGTAALGCLVKDYFPEPVTVSWNSGALTSGVHTFPAVLQSSGLYSLSSVVTVPSSSLGTQTYICNVNHKPSNTKVDKKVEPKSCDKTHTCPPCPAPELLGPSVFLFPPKPKDTLMISRTPEVTCVVVDVSHEDPEVKFNWYVDGVEVHNAKTKPREEQYNSTYRVVSVLTVLHQDWLNGKEYKCKVSNKALPAPIEKTISKAKGQPREPQVYTLPPSREEMTKNQVSLTCLVKGFYPSDIAVEWESNGQPENNYKTTPPVLDSDGSFFLYSKLTVDKSRWQQGNVFSCSVMHEALHNHYTQKSLSLSPGGGGGSGGGGSGGGGSGGGGSEVQLVESGGGLVQPGGSLRLSCAASGFTFTNYGLHWVRQAPGKGLEWVSSISPSGGVTYYRDSVKGRFTISRDNSKNTLYLQMNSLRAEDTAVYYCAKPFLGWGGANWIAHWGQGTLVTVSSGGGGSGGGGSGGGGSGGGGSDIQMTQSPSSLSASVGDRVTITCLASEDISNDLAWYQQKPGKAPKLLIYFVDRLLDGVPSRFSGSGSGTDFTLTISSLQPEDFATYYCQQSYKYPPTFGQGTKLEIK
light: DIQMTQSPSSLSASVGDRVTITCKASQNVYKKLEWYQQKPGKVPKVLIYHTNILQTGVPSRFSGSGSGTDYTLTISSLQPEDVATYYCYQWNSGPTFGGGTKVEIKRTVAAPSVFIFPPSDEQLKSGTASVVCLLNNFYPREAKVQWKVDNALQSGNSQESVTEQDSKDSTYSLSSTLTLSKADYEKHKVYACEVTHQGLSSPVTKSFNRGEC
notes: Ly076 HC (IgG1 mutated Fc)-TM559 scFv VH-VL + Ly076 LC
binds: all assays above
